{
  "source": "paper PMC5730846",
  "about": "“Tumor suppressor Tsc1 is a new Hsp90 co‐chaperone that facilitates folding of kinase and non‐kinase clients” (The EMBO Journal, 2017)",
  "proteins": {"B1": {"name": "Tsc1-D-His6 (domain or fragment, UniProt Q92574 998-1164, looked up)", "chain": "DGCSDSMVGHNEEASGHNGETKTPRPSSARGSSGSRGGGGSSSSSSELSTPEKPPHQRAGPFSSRWETTMGEASASIPTTVGSLPSSKSFLGMKARELFRNKSESQCDEDGMTSSLSESLKTELGKDLGVEAKIPLNLDGPHPSPPTPDSVGQLHIMDYNETHHEHS", "notes": "predicted monomer 22.1 kDa; dimer by gel filtration; also called fragment D; source: E. coli Tuner pLysS, purified (Ni-NTA)"}},
  "target": "the molecule itself",
  "experiment": "SEC; Tsc1-D-His6 concentrated to 10 mg/ml, Superdex 75 gel filtration",
  "data": [
    {"protein": "B1", "values": [
      {"measurement": "stoichiometry N", "result": 2}
    ]}
  ]
}
